Data as given in publication PMC5932250 (Journal of the American Chemical Society, 2018).

What was measured:
[1] = target: FITC-SgbA(leader) (Streptomyces globisporus subsp. globisporus NRRL B2293); assay: fluorescence polarisation
[2] = test system: protein tyrosine phosphatase 1B (PTP1B); details: at 50 μM; ref [48]; cited from earlier work

His6-SgbL(kinase 208-548) (domain or fragment)
Kd [1]: 357 nM

His6-SgbL(lyase-kinase 1-548) (domain or fragment)
Kd [1]: 351 nM

streptocollin
inhibition of PTP1B [2]: 33%
